Measurements as given in article PMC6544594, “Accelerated directed evolution of dye-decolorizing peroxidase using a bacterial extracellular protein secretion system (BENNY)” (Bioresources and Bioprocessing, 2019).

Substrate: CCn1c(=NN=c2sc3cc(S(=O)(=O)O)ccc3n2CC)sc2cc(S(=O)(=O)O)ccc21
Assay: purified protein
Format: biochemical, Pleurotus ostreatus
Details: 50 μL of 1 mM H2O2 in 200 μL (0.25 mM), 0.1 M citric acid–0.2 M Na2HPO4 pH 3.4, ambient temperature

B1: DyP4 (dye-decolorizing peroxidase 4) (Pleurotus ostreatus PC15) (protein)
chain: MTTPAPPLDLNNIQGDILGGLPKRTETYFFFDVTNVDQFKANMAHFIPHIKTSAGIIKDREAIKEHKRQKKPGLVPMAAVNVSFSHLGLQKLGITDDLSDNAFTTGQRKDAEILGDPGSKNGDAFTPAWEAPFLKDIHGVIFVAGDCHGSVNKKLDEIKHIFGVGTSHASISEVTHVRGDVRPGDVHAHEHFGFLDGISNPAVEQFDQNPLPGQDPIRPGFILAKENGDSRAAARPDWAKDGSFLTFRYLFQMVPEFDDFLESNPIVLPGLSRKEGSELLGARIVGRWKSGAPIEITPLKDDPKLAADAQRNNKFDFGDSLVRGDQTKCPFAAHIRKTYPRNDLEGPPLKADIDNRRIIRRGIQFGPEVTSQEHHDKKTHHGRGLLFVCYSSSIDDGFHFIQESWANAPNFPVNAVTSAGPIPPLDGVVPGFDAIIGQKVGGGIRQISGTNPNDPTTNITLPDQDFVVPRGGEYFFSPSITALKTKFAIGVASPAPHSQAPISA
notes: DyP4 without OsmY fusion, pET-24a(+)-DyP4 (NdeI/EcoRI), codon-optimized, untagged, E. coli BL21 (DE3), ion-exchange and SEC purified; forward primer encodes MTTPAPPL
Work on B1 yielded a Km of 895 ± 65 µM, a kcat of 3.86 ± 0.08 s⁻¹ and a kcat/Km of 4310 ± 410 M⁻¹ s⁻¹.

B2: DyP4 (dye-decolorizing peroxidase 4) (Pleurotus ostreatus PC15; I56V/K109R/N227S/N312S) (protein)
chain: MTTPAPPLDLNNIQGDILGGLPKRTETYFFFDVTNVDQFKANMAHFIPHIKTSAGVIKDREAIKEHKRQKKPGLVPMAAVNVSFSHLGLQKLGITDDLSDNAFTTGQRRDAEILGDPGSKNGDAFTPAWEAPFLKDIHGVIFVAGDCHGSVNKKLDEIKHIFGVGTSHASISEVTHVRGDVRPGDVHAHEHFGFLDGISNPAVEQFDQNPLPGQDPIRPGFILAKESGDSRAAARPDWAKDGSFLTFRYLFQMVPEFDDFLESNPIVLPGLSRKEGSELLGARIVGRWKSGAPIEITPLKDDPKLAADAQRSNKFDFGDSLVRGDQTKCPFAAHIRKTYPRNDLEGPPLKADIDNRRIIRRGIQFGPEVTSQEHHDKKTHHGRGLLFVCYSSSIDDGFHFIQESWANAPNFPVNAVTSAGPIPPLDGVVPGFDAIIGQKVGGGIRQISGTNPNDPTTNITLPDQDFVVPRGGEYFFSPSITALKTKFAIGVASPAPHSQAPISA
notes: as for B1
Protein B2 has a Km (variant 4D4) of 390 ± 59 µM, a kcat (variant 4D4) of 4.52 ± 0.15 s⁻¹ and a kcat/Km (variant 4D4) of 11600 ± 2140 M⁻¹ s⁻¹.

B3: DyP4 (dye-decolorizing peroxidase 4) (Pleurotus ostreatus PC15; I56V/K109R/N312S) (protein)
chain: MTTPAPPLDLNNIQGDILGGLPKRTETYFFFDVTNVDQFKANMAHFIPHIKTSAGVIKDREAIKEHKRQKKPGLVPMAAVNVSFSHLGLQKLGITDDLSDNAFTTGQRRDAEILGDPGSKNGDAFTPAWEAPFLKDIHGVIFVAGDCHGSVNKKLDEIKHIFGVGTSHASISEVTHVRGDVRPGDVHAHEHFGFLDGISNPAVEQFDQNPLPGQDPIRPGFILAKENGDSRAAARPDWAKDGSFLTFRYLFQMVPEFDDFLESNPIVLPGLSRKEGSELLGARIVGRWKSGAPIEITPLKDDPKLAADAQRSNKFDFGDSLVRGDQTKCPFAAHIRKTYPRNDLEGPPLKADIDNRRIIRRGIQFGPEVTSQEHHDKKTHHGRGLLFVCYSSSIDDGFHFIQESWANAPNFPVNAVTSAGPIPPLDGVVPGFDAIIGQKVGGGIRQISGTNPNDPTTNITLPDQDFVVPRGGEYFFSPSITALKTKFAIGVASPAPHSQAPISA
notes: as for B1
In the case of B3, the Km (variant 3F6) is reported as 427 ± 55 µM, the kcat (variant 3F6) is reported as 5.02 ± 0.15 s⁻¹ and the kcat/Km (variant 3F6) is reported as 11800 ± 1860 M⁻¹ s⁻¹.
